Source: the supplement of paper PMC9112550, “Optimization of the antimicrobial peptide Bac7 by deep mutational scanning” (BMC Biology, 2022)

System: Escherichia coli TOP10
Test: shrunken log2 fold change of peptide-encoding DNA abundance (4.5 h post-induction vs induction); higher = less antimicrobial activity (less host growth inhibition)
Details: time post-induction: 4.5 h; library: site-saturation at positions 5, 18, 19, 20
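Note: peptides expressed intracellularly from a pBAD plasmid library in pooled LB shake-flask culture, induced with 0.3% L-arabinose, DNA abundance read by NGS, three biological replicates, DESeq2 with apeglm shrinkage.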

| Sequence | shrunken log2 fold change |
| --- | --- |
| RRIRDRPPRLPRPRPRPNKNPRP | -0.343 |
| RRIRDRPPRLPRPRPRPNKTPRP | -0.132 |
| RRIRDRPPRLPRPRPRPNKYPRP | -0.828 |
| RRIRDRPPRLPRPRPRPNLQPRP | -0.71 |
| RRIRDRPPRLPRPRPRPNLTPRP | -0.325 |
| RRIRDRPPRLPRPRPRPNLVPRP | -0.0615 |
| RRIRDRPPRLPRPRPRPNNCPRP | -0.466 |
| RRIRDRPPRLPRPRPRPNNWPRP | -0.11 |
| RRIRDRPPRLPRPRPRPNPDPRP | -0.0924 |
| RRIRDRPPRLPRPRPRPNPKPRP | 0.165 |
| RRIRDRPPRLPRPRPRPNRYPRP | -0.0973 |
| RRIRDRPPRLPRPRPRPNSQPRP | -0.283 |
| RRIRDRPPRLPRPRPRPNSRPRP | -0.0447 |
| RRIRDRPPRLPRPRPRPNSSPRP | -0.675 |
| RRIRDRPPRLPRPRPRPNTLPRP | -0.269 |
| RRIRDRPPRLPRPRPRPNVDPRP | 0.0276 |
| RRIRDRPPRLPRPRPRPNVKPRP | -0.631 |
| RRIRDRPPRLPRPRPRPNVMPRP | -0.323 |
| RRIRDRPPRLPRPRPRPNVNPRP | -0.166 |
| RRIRDRPPRLPRPRPRPNVPPRP | 0.0123 |
| RRIRDRPPRLPRPRPRPNVRPRP | -0.275 |
| RRIRDRPPRLPRPRPRPNYKPRP | -0.241 |
| RRIRDRPPRLPRPRPRPNYNPRP | -0.865 |
| RRIRDRPPRLPRPRPRPPAIPRP | 0.00372 |
| RRIRDRPPRLPRPRPRPPCCPRP | -0.124 |

| Sequence | shrunken log2 fold change |
| --- | --- |
| RRIRDRPPRLPRPRPRPPDSPRP | 0.0832 |
| RRIRDRPPRLPRPRPRPPERPRP | 0.0665 |
| RRIRDRPPRLPRPRPRPPGHPRP | 0.0994 |
| RRIRDRPPRLPRPRPRPPHMPRP | 1.51 |
| RRIRDRPPRLPRPRPRPPHPPRP | 0.235 |
| RRIRDRPPRLPRPRPRPPITPRP | -0.217 |
| RRIRDRPPRLPRPRPRPPKIPRP | -0.0144 |
| RRIRDRPPRLPRPRPRPPLVPRP | 0.194 |
| RRIRDRPPRLPRPRPRPPNIPRP | -0.0733 |
| RRIRDRPPRLPRPRPRPPNQPRP | 0.317 |
| RRIRDRPPRLPRPRPRPPNYPRP | -0.147 |
| RRIRDRPPRLPRPRPRPPPCPRP | 0.443 |
| RRIRDRPPRLPRPRPRPPPHPRP | 0.623 |
| RRIRDRPPRLPRPRPRPPQGPRP | 0.289 |
| RRIRDRPPRLPRPRPRPPQSPRP | 0.613 |
| RRIRDRPPRLPRPRPRPPQVPRP | 0.272 |
| RRIRDRPPRLPRPRPRPPRPPRP | 0.616 |
| RRIRDRPPRLPRPRPRPPVSPRP | 0.0155 |
| RRIRDRPPRLPRPRPRPPYCPRP | -0.0939 |
| RRIRDRPPRLPRPRPRPPYRPRP | 0.0425 |
| RRIRDRPPRLPRPRPRPPYWPRP | 0.246 |
| RRIRDRPPRLPRPRPRPQAAPRP | 0.0147 |
| RRIRDRPPRLPRPRPRPQCAPRP | 0.0622 |
| RRIRDRPPRLPRPRPRPQCEPRP | 0.0364 |
| RRIRDRPPRLPRPRPRPQCGPRP | 0.192 |

| Sequence | shrunken log2 fold change |
| --- | --- |
| RRIRDRPPRLPRPRPRPQCRPRP | 0.0338 |
| RRIRDRPPRLPRPRPRPQDKPRP | -0.592 |
| RRIRDRPPRLPRPRPRPQEEPRP | -0.0321 |
| RRIRDRPPRLPRPRPRPQEFPRP | -0.0529 |
| RRIRDRPPRLPRPRPRPQEIPRP | -0.00905 |
| RRIRDRPPRLPRPRPRPQGKPRP | 0.00439 |
| RRIRDRPPRLPRPRPRPQGRPRP | -0.0642 |
| RRIRDRPPRLPRPRPRPQHVPRP | 0.0427 |
| RRIRDRPPRLPRPRPRPQIEPRP | -0.0186 |
| RRIRDRPPRLPRPRPRPQIQPRP | -0.221 |
| RRIRDRPPRLPRPRPRPQKAPRP | 0.0864 |
| RRIRDRPPRLPRPRPRPQKSPRP | -0.11 |
| RRIRDRPPRLPRPRPRPQMAPRP | 0.116 |
| RRIRDRPPRLPRPRPRPQNIPRP | -0.126 |
| RRIRDRPPRLPRPRPRPQNKPRP | -0.475 |
| RRIRDRPPRLPRPRPRPQPGPRP | 0.237 |
| RRIRDRPPRLPRPRPRPQPLPRP | 0.194 |
| RRIRDRPPRLPRPRPRPQPVPRP | 0.28 |
| RRIRDRPPRLPRPRPRPQTLPRP | 0.0519 |
| RRIRDRPPRLPRPRPRPQTRPRP | 0.138 |
| RRIRDRPPRLPRPRPRPRDEPRP | 0.12 |
| RRIRDRPPRLPRPRPRPRDRPRP | 0.13 |
| RRIRDRPPRLPRPRPRPREFPRP | -0.0261 |
| RRIRDRPPRLPRPRPRPRESPRP | 0.583 |
| RRIRDRPPRLPRPRPRPRFAPRP | 0.327 |

| Sequence | shrunken log2 fold change |
| --- | --- |
| RRIRDRPPRLPRPRPRPRHAPRP | 0.324 |
| RRIRDRPPRLPRPRPRPRIQPRP | -0.0934 |
| RRIRDRPPRLPRPRPRPRKEPRP | -0.00977 |
| RRIRDRPPRLPRPRPRPRKKPRP | 0.0136 |
| RRIRDRPPRLPRPRPRPRLAPRP | 0.686 |
| RRIRDRPPRLPRPRPRPRNDPRP | -0.461 |
| RRIRDRPPRLPRPRPRPRNFPRP | 0.0881 |
| RRIRDRPPRLPRPRPRPRPGPRP | 1.6 |
| RRIRDRPPRLPRPRPRPRSYPRP | -0.0236 |
| RRIRDRPPRLPRPRPRPRTGPRP | 0.0132 |
| RRIRDRPPRLPRPRPRPRVNPRP | -0.149 |
| RRIRDRPPRLPRPRPRPRVYPRP | 0.102 |
| RRIRDRPPRLPRPRPRPRYCPRP | -0.351 |
| RRIRDRPPRLPRPRPRPRYPPRP | -0.0457 |
| RRIRDRPPRLPRPRPRPSAWPRP | 0.123 |
| RRIRDRPPRLPRPRPRPSCMPRP | 0.0312 |
| RRIRDRPPRLPRPRPRPSCTPRP | -0.244 |
| RRIRDRPPRLPRPRPRPSCYPRP | -0.302 |
| RRIRDRPPRLPRPRPRPSEIPRP | -0.167 |
| RRIRDRPPRLPRPRPRPSELPRP | -0.184 |
| RRIRDRPPRLPRPRPRPSEWPRP | -0.0637 |
| RRIRDRPPRLPRPRPRPSGKPRP | -0.24 |
| RRIRDRPPRLPRPRPRPSGMPRP | -0.0709 |
| RRIRDRPPRLPRPRPRPSIHPRP | -0.123 |
| RRIRDRPPRLPRPRPRPSIYPRP | -0.313 |

| Sequence | shrunken log2 fold change |
| --- | --- |
| RRIRDRPPRLPRPRPRPSKFPRP | -0.105 |
| RRIRDRPPRLPRPRPRPSLTPRP | 0.154 |
| RRIRDRPPRLPRPRPRPSLYPRP | 0.266 |
| RRIRDRPPRLPRPRPRPSMDPRP | -0.0183 |
| RRIRDRPPRLPRPRPRPSMSPRP | -0.33 |
| RRIRDRPPRLPRPRPRPSNKPRP | -0.325 |
| RRIRDRPPRLPRPRPRPSNRPRP | -0.052 |
| RRIRDRPPRLPRPRPRPSPEPRP | 0.778 |
| RRIRDRPPRLPRPRPRPSPMPRP | 0.136 |
| RRIRDRPPRLPRPRPRPSPVPRP | 0.0438 |
| RRIRDRPPRLPRPRPRPSQTPRP | -0.244 |
| RRIRDRPPRLPRPRPRPSRHPRP | 0.0369 |
| RRIRDRPPRLPRPRPRPSRWPRP | 0.0623 |
| RRIRDRPPRLPRPRPRPSVPPRP | -0.329 |
| RRIRDRPPRLPRPRPRPSWLPRP | 0.339 |
| RRIRDRPPRLPRPRPRPSWNPRP | -0.365 |
| RRIRDRPPRLPRPRPRPSWVPRP | -0.211 |
| RRIRDRPPRLPRPRPRPSYFPRP | -0.255 |
| RRIRDRPPRLPRPRPRPSYIPRP | -0.267 |
| RRIRDRPPRLPRPRPRPSYQPRP | -0.494 |
| RRIRDRPPRLPRPRPRPTARPRP | 0.546 |
| RRIRDRPPRLPRPRPRPTAWPRP | 1.51 |
| RRIRDRPPRLPRPRPRPTCCPRP | 0.104 |
| RRIRDRPPRLPRPRPRPTCMPRP | -0.0434 |
| RRIRDRPPRLPRPRPRPTCTPRP | 0.53 |

| Sequence | shrunken log2 fold change |
| --- | --- |
| RRIRDRPPRLPRPRPRPTDAPRP | -0.036 |
| RRIRDRPPRLPRPRPRPTDNPRP | -0.5 |
| RRIRDRPPRLPRPRPRPTFPPRP | 0.0873 |
| RRIRDRPPRLPRPRPRPTGVPRP | -0.0117 |
| RRIRDRPPRLPRPRPRPTIVPRP | 0.0194 |
| RRIRDRPPRLPRPRPRPTLGPRP | 1.08 |
| RRIRDRPPRLPRPRPRPTLKPRP | -0.0215 |
| RRIRDRPPRLPRPRPRPTLLPRP | 0.758 |
| RRIRDRPPRLPRPRPRPTMIPRP | -0.587 |
| RRIRDRPPRLPRPRPRPTMMPRP | 0.338 |
| RRIRDRPPRLPRPRPRPTNCPRP | -0.0515 |
| RRIRDRPPRLPRPRPRPTQYPRP | -0.191 |
| RRIRDRPPRLPRPRPRPTSIPRP | 0.099 |
| RRIRDRPPRLPRPRPRPTVDPRP | 0.195 |
| RRIRDRPPRLPRPRPRPTVLPRP | 0.306 |
| RRIRDRPPRLPRPRPRPTWAPRP | 0.168 |
| RRIRDRPPRLPRPRPRPTYCPRP | -0.27 |
| RRIRDRPPRLPRPRPRPVAIPRP | 0.711 |
| RRIRDRPPRLPRPRPRPVDCPRP | -0.0327 |
| RRIRDRPPRLPRPRPRPVDMPRP | 0.0154 |
| RRIRDRPPRLPRPRPRPVEVPRP | 0.43 |
| RRIRDRPPRLPRPRPRPVEYPRP | 0.0163 |
| RRIRDRPPRLPRPRPRPVFEPRP | 0.187 |
| RRIRDRPPRLPRPRPRPVGTPRP | -0.0472 |
| RRIRDRPPRLPRPRPRPVGVPRP | 0.189 |
